Source: US20150037348A1

Key:
[1] = molecular target: recombinant rhesus IL-12 (rhesus monkey) (UniProt P48091); assay: cell-based or functional assay
[2] = molecular target: baboon IL-12 (PBMC supernatant) (baboon); assay: cell-based or functional assay
[3] = molecular target: recombinant human IL-12 (rhIL-12) (human) (UniProt P29459); assay: cell-based or functional assay
[4] = molecular target: cynomolgus IL-12 (PBMC supernatant) (cynomolgus monkey); assay: cell-based or functional assay
[5] = molecular target: recombinant murine IL-12 (mouse) (UniProt P43431); assay: biomolecular interaction assay, C17.15 captured via goat anti-rat IgG, murine IL-12 in solution
Chain of recombinant murine IL-12 (mouse) (P43431 23-215, chain 1 of 2): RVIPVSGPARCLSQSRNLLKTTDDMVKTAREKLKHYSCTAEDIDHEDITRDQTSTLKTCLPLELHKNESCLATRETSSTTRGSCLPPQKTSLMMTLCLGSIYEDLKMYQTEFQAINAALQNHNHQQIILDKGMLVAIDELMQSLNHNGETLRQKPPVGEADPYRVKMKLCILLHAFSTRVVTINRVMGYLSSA
Chain of recombinant murine IL-12 (mouse) (P43432 23-335, chain 2 of 2, further chain): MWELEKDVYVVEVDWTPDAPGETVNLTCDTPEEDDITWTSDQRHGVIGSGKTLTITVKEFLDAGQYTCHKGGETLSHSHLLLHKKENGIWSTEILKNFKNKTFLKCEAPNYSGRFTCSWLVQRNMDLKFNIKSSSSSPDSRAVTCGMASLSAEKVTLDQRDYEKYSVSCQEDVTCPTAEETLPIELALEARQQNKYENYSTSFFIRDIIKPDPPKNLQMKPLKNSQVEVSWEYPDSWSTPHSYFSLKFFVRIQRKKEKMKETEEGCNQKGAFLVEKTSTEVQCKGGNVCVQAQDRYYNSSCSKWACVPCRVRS

[6] = molecular target: recombinant murine IL-12 (mouse) (UniProt P43431); assay: cell-based or functional assay
[7] = molecular target: recombinant murine IL-12 (mouse) (UniProt P43431); assay: receptor binding assay, 125I-murine IL-12 on 2D6 cells

Chain of recombinant human IL-12 (rhIL-12) (human) (P29459 23-219, chain 1 of 2): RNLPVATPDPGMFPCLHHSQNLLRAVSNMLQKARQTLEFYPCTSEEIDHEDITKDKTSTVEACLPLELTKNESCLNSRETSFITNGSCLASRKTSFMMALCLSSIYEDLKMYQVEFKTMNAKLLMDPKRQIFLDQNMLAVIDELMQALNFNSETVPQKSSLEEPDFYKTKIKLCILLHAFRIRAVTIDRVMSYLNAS
Chain of recombinant human IL-12 (rhIL-12) (human) (P29460 23-328, chain 2 of 2, further chain): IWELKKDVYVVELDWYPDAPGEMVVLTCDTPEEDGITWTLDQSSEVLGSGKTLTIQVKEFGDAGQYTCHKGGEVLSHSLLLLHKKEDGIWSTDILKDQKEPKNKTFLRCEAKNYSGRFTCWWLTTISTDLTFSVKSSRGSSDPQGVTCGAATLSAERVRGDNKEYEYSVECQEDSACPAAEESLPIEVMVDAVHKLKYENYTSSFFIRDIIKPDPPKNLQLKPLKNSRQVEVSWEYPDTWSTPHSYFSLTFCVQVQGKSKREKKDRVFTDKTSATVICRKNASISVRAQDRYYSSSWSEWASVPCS
Chain of recombinant rhesus IL-12 (rhesus monkey) (P48091 23-219, chain 1 of 2): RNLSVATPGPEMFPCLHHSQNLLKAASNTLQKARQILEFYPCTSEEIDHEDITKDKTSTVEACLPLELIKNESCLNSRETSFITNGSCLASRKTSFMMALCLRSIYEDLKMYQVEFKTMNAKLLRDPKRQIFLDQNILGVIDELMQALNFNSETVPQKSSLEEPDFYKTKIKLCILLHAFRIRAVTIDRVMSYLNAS
Chain of recombinant rhesus IL-12 (rhesus monkey) (P48095 23-328, chain 2 of 2, further chain): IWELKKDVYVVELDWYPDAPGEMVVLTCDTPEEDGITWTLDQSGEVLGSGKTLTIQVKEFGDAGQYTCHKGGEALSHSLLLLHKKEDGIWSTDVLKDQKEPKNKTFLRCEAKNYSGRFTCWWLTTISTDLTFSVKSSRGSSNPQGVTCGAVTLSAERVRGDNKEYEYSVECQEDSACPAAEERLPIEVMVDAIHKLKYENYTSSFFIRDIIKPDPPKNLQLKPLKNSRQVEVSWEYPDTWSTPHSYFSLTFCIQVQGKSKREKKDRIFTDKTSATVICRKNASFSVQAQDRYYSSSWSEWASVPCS

Q: What does the source list for C8.6.2 (antibody)?
A: IC50 (M), bioassay, Rhesus IL-12 Purified [1]: 1e-10 M; IC50 (M), bioassay, Baboon IL-12 PBMC sup [2]: 2e-10 M; IC50 (M), bioassay, Human IL-12 Purified [3]: 5e-11 M; IC50 (M), bioassay, Cyno IL-12 PBMC sup [4]: 1.2e-10 M

Q: What does the source list for C17.15 (antibody)?
A: Kd [5]: 480 pM; koff [5]: 0.000184 s⁻¹; kon [5]: 380000 M⁻¹ s⁻¹; IC50 (M), bioassay, Mouse IL-12 Purified [6]: 3e-11 M; PHA blast IC50 [6]: 14 pM; IC50 [7]: 150 pM
